# Results reported in article PMC8016135, “Observation of arenavirus nucleoprotein heptamer assembly” (FEBS Open Bio, 2021).
# B1: Mopeia virus nucleoprotein (natural protein, UniProt P19239 1-570, looked up)
# chain: MSNSKEVKSFLWTQSLRRELSGYCSNIKIQVIKDAQALLHGLDFSEVANVQRLMRKEKRDDSDLKRLRDLNQAVNNLVELKSVQQKNVLRVGTLTSDDLLVLAADLDRLKAKVIRGERPLAAGVYMGNLTAQQLEQRRVLLQMVGMGGGFRAGNTLGDGIVRVWDVRNPELLNNQFGTMPSLTIACMCKQGQADLNDVIQSLSDLGLVYTAKYPNMSDLDKLSQTHPILGIIEPKKSAINISGYNFSLSAAVKAGACLIDGGNMLETIKVTKSNLEGILKAALKVKRSLGMFVSDTPGERNPYENLLYKLCLSGEGWPYIASRTSIVGRAWDNTTVDLSGDVQQNAKPDKGNSNRLAQAQGMPAGLTYSQTMELKDSMLQLDPNAKTWIDIEGRPEDPVEIAIYQPNNGQYIHFYREPTDIKQFKQDSKHSHGIDIQDLFSVQPGLTSAVIESLPKNMVLSCQGADDIRKLLDSQNRRDIKLIDVSMQKDDARKFEDKIWDEYKHLCRMHTGIVTQKKKRGGKEEVTPHCALLDCLMFEAAVIGSPQIPTPRPVLSRDLVFRTGPPRVVL
# notes: Nucleoprotein (NP, ~63 kDa) of Mopeia virus (MOPV), full length; also called MOPV-NP; MOPV NP; not shown: thioredoxin, N-terminal, cleaved; His6, N-terminal, cleaved
# Biological target: the molecule itself
# Assay: negative stain transmission electron microscopy
protein,measurement,value
B1,stoichiometry N,7
